Results taken from patent US20260273042A1.

Legend:
[1] = biological target: CD4 on human CD4+ T cells (human) (UniProt P01730); test: flow cytometry, human CD4+ T cells stained with trimer labelled with two fluorescent probes
[2] = biological target: BG505_SOSIP_D664_MD39_mC (BG505 SOSIP-MD39 or MD39) (HIV (strain BG505)); test: SPR, monovalent interaction
[3] = biological target: BG505_SOSIP.D664_JS_10mut_mC (SOSIP-10MUT) (HIV (strain BG505)); test: SPR, IgG ligand, trimer analyte [panel A]
[4] = biological target: BG505_SOSIP.D664_JS_3mut_mC (SOSIP-3MUT) (HIV (strain BG505)); test: SPR, IgG ligand, trimer analyte [panel A]
[5] = biological target: BG505_SOSIP.D664_JS_5mut_mC (SOSIP-5MUT) (HIV (strain BG505)); test: SPR, IgG ligand, trimer analyte [panel A]
[6] = biological target: BG505_SOSIP_D664_MD39_mC (BG505 SOSIP-MD39 or MD39) (HIV (strain BG505)); test: SPR, IgG ligand, trimer analyte [panel A]
[7] = biological target: BG505_SOSIP_D664_olio6_mC (HIV (strain BG505)); test: SPR, IgG ligand, trimer analyte [panel A]
[8] = biological target: BG505_SOSIP_D664_MD39_mC (BG505 SOSIP-MD39 or MD39) (HIV (strain BG505)); test: SPR (ligand and analyte not given)
[9] = biological target: BG505_SOSIP_D664_olio6_mC (HIV (strain BG505)); test: SPR (ligand and analyte not given)
[10] = biological target: BG505 SOSIP T332N gp140 (soluble trimer) (HIV (strain BG505)); test: SPR, monovalent interaction
[11] = biological target: BG505 MD37; test: SPR (ligand and analyte not given)
[12] = biological target: BG505 MD39C; test: SPR (ligand and analyte not given)
[13] = biological target: BG505_MD39_CP1.2_GRSF7_qLoops1 (HIV (strain BG505)); test: SPR, Fab analyte
[14] = biological target: BG505 SOSIP MD39 E2p (HIV (strain BG505) fused to Bacillus stearothermophilus E2p); test: SPR, captured particle, Fab analyte
[15] = biological target: BG505_SOSIP_MD39_2JD6 (HIV (strain BG505) fused to Pyrococcus furiosus ferritin); test: SPR, captured particle, Fab analyte
[16] = biological target: BG505_SOSIP_D664_MD39_mC (BG505 SOSIP-MD39 or MD39) (HIV (strain BG505)); test: SPR, trimer ligand, Fab analyte [panel A]
[17] = biological target: BG505_SOSIP_D664_olio6_mC (HIV (strain BG505)); test: SPR, trimer ligand, Fab analyte [panel A]
[18] = biological target: BG505_SOSIP.D664_JS_10mut_mC (SOSIP-10MUT) (HIV (strain BG505)); test: ELISA, His-tagged trimer captured, mAb titrated [panel B]
[19] = biological target: BG505_SOSIP_D664_MD39_mC (BG505 SOSIP-MD39 or MD39) (HIV (strain BG505)); test: as above
[20] = biological target: BG505 SOSIP T332N gp140 (soluble trimer) (HIV (strain BG505)); test: SPR, IgG ligand, trimer analyte [panel A]
[21] = biological target: MD39-10MUT; test: SPR, IgG ligand, trimer analyte [panel A]
[22] = biological target: BG505 SOSIP T332N gp140 (soluble trimer) (HIV (strain BG505)); test: SPR, IgG ligand, trimer analyte [panel A]; remark: listed apart in the source
[23] = biological target: BG505 MD53; test: SPR (ligand and analyte not given)
[24] = biological target: BG505 SOSIP T332N gp140 (soluble trimer) (HIV (strain BG505)); test: SPR (ligand and analyte not given)
[25] = biological target: BG505 SOSIP T332N gp140 (soluble trimer) (HIV (strain BG505)); test: ELISA, His-tagged trimer captured, mAb titrated [panel B]
[26] = biological target: BG505_SOSIP.D664_JS_10mut_mC (SOSIP-10MUT) (HIV (strain BG505)); test: SPR, trimer ligand, Fab analyte (1-to-1 fit relatively poor) [panel A]
[27] = biological target: BG505_SOSIP.D664_JS_3mut_mC (SOSIP-3MUT) (HIV (strain BG505)); test: as above
[28] = biological target: BG505_SOSIP_D664_MD39_mC (BG505 SOSIP-MD39 or MD39) (HIV (strain BG505)); test: as above
[29] = biological target: BG505_SOSIP.D664_JS_10mut_mC (SOSIP-10MUT) (HIV (strain BG505)); test: SPR, trimer ligand, Fab analyte [panel A]
[30] = biological target: BG505_SOSIP.D664_JS_3mut_mC (SOSIP-3MUT) (HIV (strain BG505)); test: SPR, trimer ligand, Fab analyte [panel A]
[31] = biological target: BG505_SOSIP.D664_JS_5mut_mC (SOSIP-5MUT) (HIV (strain BG505)); test: SPR, trimer ligand, Fab analyte [panel A]
[32] = biological target: MD39-10MUT; test: SPR, trimer ligand, Fab analyte [panel A]
[33] = biological target: BG505 SOSIP T332N gp140 (soluble trimer) (HIV (strain BG505)); test: SPR, trimer ligand, Fab analyte [panel A]
[34] = biological target: BG505_SOSIP_D664_MD39_mC (BG505 SOSIP-MD39 or MD39) (HIV (strain BG505)); test: SPR, trimer ligand, Fab analyte [panel A]; remark: listed apart in the source
[35] = biological target: BG505-gp120 9MUTB (7MUT+N135R/Q328M) (HIV (strain BG505)); test: SPR, monomeric gp120

BG505 SOSIP T332N gp140 (soluble trimer) (other; other documents disagree on this pair)
percentage of cells in the double-positive population [1]: 99.1%

PGT145 (antibody)
Kd [2]: 0.06 µM | Kd [3]: 0.003 µM | Kd [4]: 0.003 µM | Kd [5]: 0.003 µM | Kd [6]: 0.02 µM | Kd [7]: 0.031 µM | Kd [8]: 0.02 µM | Kd [9]: 0.031 µM

PGT128 (antibody)
Kd [10]: 0.008 µM | Kd [2]: 0.012 µM | Kd [11]: 0.019 µM | Kd [12]: 0.014 µM | Kd [9]: 0.011 µM

PGT145-Fab
Kd [13]: 0.026 µM | Kd [14]: 0.041 µM | Kd [15]: 0.049 µM

VRC01 (antibody)
Kd [2]: 0.124 µM | Kd [8]: 0.124 µM

3BNC60 Fab
Kd [16]: 0.189 µM | Kd [17]: 0.119 µM

PGT151 (antibody)
Kd [2]: 0.011 µM | Kd [8]: 0.011 µM | EC50 (read off the curve) [18]: 0.03 µg/mL | EC50 (read off the curve) [19]: 0.03 µg/mL

PGDM1400 (antibody)
Kd [10]: 0.005 µM | Kd [2]: 0.036 µM | Kd [20]: 0.002 µM | Kd [3]: 0.001 µM | Kd [4]: 0.001 µM | Kd [5]: 0.001 µM | Kd [21]: 0.006 µM | Kd [22]: 0.006 µM | Kd [6]: 0.012 µM | Kd [23]: 0.011 µM | Kd [24]: 0.006 µM | Kd [8]: 0.012 µM | EC50 (read off the curve) [25]: 0.04 µg/mL | EC50 (read off the curve) [18]: 0.04 µg/mL | EC50 (read off the curve) [19]: 0.04 µg/mL

PGT151 Fab
Kd [14]: 0.025 µM | Kd [15]: 0.049 µM | Kd [16]: 0.011 µM | Kd [26]: 0.02 µM | Kd [27]: 0.009 µM | Kd [28]: 0.011 µM

VRC01-Fab
Kd [14]: < 0.001 µM | Kd [15]: < 0.001 µM | Kd [29]: 0.115 µM | Kd [30]: 0.101 µM | Kd [31]: 0.195 µM | Kd [32]: 0.142 µM | Kd [16]: 0.124 µM

PGT128 Fab
Kd [14]: 0.006 µM | Kd [15]: 0.005 µM | Kd [33]: 0.008 µM | Kd [29]: 0.003 µM | Kd [30]: 0.003 µM | Kd [31]: 0.005 µM | Kd [34]: 0.012 µM | Kd [32]: 0.003 µM | Kd [16]: 0.011 µM

PGT121 (antibody)
Kd [35]: 0.0015 µM

3BNC60 (antibody)
Kd [11]: 0.189 µM | Kd [12]: 0.144 µM | Kd [8]: 0.121 µM | Kd [9]: 0.119 µM
